This is an account of results in patent US6649392 (US Dept. of Health and Human Services, dated 2003).

Broadly, the Ki is the equilibrium dissociation constant of an inhibitor or competing ligand from its target.

T1: RNase A (bovine pancreatic) (bovine, UniProt P61823 27-150)
T1 construct: also called bovine RNase A
T1 sequence (looked up): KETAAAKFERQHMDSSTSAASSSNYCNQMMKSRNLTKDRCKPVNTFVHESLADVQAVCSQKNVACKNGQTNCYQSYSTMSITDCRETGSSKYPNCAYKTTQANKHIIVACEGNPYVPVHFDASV

B1: native Onc purified from the eggs of Rana pipiens (enzyme, UniProt P22069 1-104, looked up)
chain: QDWLTFQKKHITNTRDVDCDNIMSTNLFHCKDKNTFIYSRPEPVKAICKGIIASKNVLTTSEFYLSDCNVTSRPCKYKLKKSTNKFCVTCENQAPVHFVGVGSC
modifications: pyroglutamyl residue at position 1 (amino terminus)
notes: mature; also called nOnc; ONCONASE
B2: placental ribonuclease inhibitor (other, UniProt P13489 2-461, looked up)
chain: SLDIQSLDIQCEELSDARWAELLPLLQQCQVVRLDDCGLTEARCKDISSALRVNPALAELNLRSNELGDVGVHCVLQGLQTPSCKIQKLSLQNCCLTGAGCGVLSSTLRTLPTLQELHLSDNLLGDAGLQLLCEGLLDPQCRLEKLQLEYCSLSAASCEPLASVLRAKPDFKELTVSNNDINEAGVRVLCQGLKDSPCQLEALKLESCGVTSDNCRDLCGIVASKASLRELALGSNKLGDVGMAELCPGLLHPSSRLRTLWIWECGITAKGCGDLCRVLRAKESLKELSLAGNELGDEGARLLCETLLEPGCQLESLWVKSCSFTAACCSHFSSVLAQNRFLLELQISNNRLEDAGVRELCQGLGQPGSVLRVLWLADCDVSDSSCSSLAATLLANHSLRELDLSNNCLGDAGILQLVESVRQPGCLLEQLVLYDIYWSEEMEDRLQALEKDKPSLRVIS
notes: also called PRI
B3: recombinant Met(-1) human pancreatic ribonuclease (enzyme)
chain: MKESRAKKFQRQHMDSDSSPSSSSTYCNQMMRRRNMTQGRCKPVNTFVHEPLVDVQNVCFQEKVTCKNGQGNCYKSNSSMHITDCRLTNGSRYPNCAYRTSPKERHIIVACEGSPYVPVHFDASVEDST
notes: mature; also called rhRNase; hRNase

Assay [1] has as its target B2. Kind of assay: steady-state inhibition of RNase activity by PRI. The procedure: (§1) Steady-state inhibition constants (K_i) for PRI interaction were determined using a modification of a method (Vincentini et al., Biochemistry 29:8827–8834 (1990)) to analyse competitive slow tight-binding inhibition mechanisms. Steady-state rates of product formation were calculated by a spectrophotometric method. […] The reaction was started by the addition of enzyme (0.01 to 2 nM depending on the assayed protein) and followed during 90–120 min. Several inhibitor concentrations were distributed below and above the enzyme concentration. […] The amount of product formed was calculated by following the absorbance decrease at 286 nm for CpA (change in ε=521 M^-1) and at 280 nm for UpG (change in ε=757 M^-1 cm^-1). The calculated steady-state rates for each inhibitor concentration were fitted by nonlinear regression to the equation for tight binding inhibition as described by Vicentini et al. (1990). In each case $I50$, defined as the total inhibitor concentration required to give 50% inhibition, were deduced from the V_s-I Dixon plot and compared to the calculated K_i, considering in each case the total enzyme concentration.
(§2) [a]K_i values were calculated from the observed steady-state rates (v_s) at different inhibitor concentrations, by fitting the data to the tight-binding non-linear regression equation.

The target in assay [2] is rhRNase1-11-rOnc10-104 hybrid (human; Rana pipiens) (UniProt P07998). Kind of assay: approximate Ki calculated from I50, inhibition of RNase activity (UpG substrate, spectrophotometric); row rhRNase1-11-Onc10-104.
Assay [3] deals with rOnc1-9-hRNase12-127 hybrid (Rana pipiens; human) (UniProt P07998). Kind of assay: steady-state inhibition of RNase activity by PRI.
Assay [4] concerns the target B3. Briefly: steady-state tight-binding inhibition of RNase activity (CpA substrate, spectrophotometric); row rhRNase. How it is done:
as §1, §2

Assay [5] deals with T1, RNase A (bovine pancreatic). Briefly: steady-state tight-binding inhibition of RNase activity (CpA substrate, spectrophotometric); row RNaseA. The procedure:
as §1, §2

Assay [6] concerns the target rhRNase1-11-rOnc10-104 hybrid (human; Rana pipiens) (UniProt P07998). Briefly: approximate Ki from I50, inhibition of RNase activity by PRI.
The target of assay [7] is B1. Briefly: approximate Ki calculated from I50, inhibition of RNase activity (UpG substrate, spectrophotometric); row nOnc. How it is done: as §1, §2
For assay [8], the target named is rOnc1-9-hRNase12-127 hybrid (Rana pipiens; human) (UniProt P07998). Briefly: steady-state tight-binding inhibition of RNase activity (CpA substrate, spectrophotometric); row rOnc1-9-hRNase12-127.

For B1, the binding result in assay [1] is given as “binds”.

Take B2: the Ki in assay [2] was more than 400 nM; in assay [4], 0.0002 nM; in assay [5] it was 0.058 pM; in assay [7], not below 100000 nM; in assay [8], 0.0056 nM. The molecule further showed a fold increase of Ki in relation to rhRNase in assay [3] of 30 fold. In assay [6], the fold increase of PRI affinity in relation to Onc came to 3 fold.

Turning to B3, the binding result in assay [1] is recorded as “binds”.
